B1: KaiB (natural protein)
chain: MSPRKTYILKLYVAGNTPNSVRALKTLKNILEVEFQGVYALKVIDVLKNPQLAEEDKILATPTLAKVLPLPVRRIIGDLSDREKVLIGLDLLYGELQDSDDF
B2: KaiC-pSpT (KaiC fully phosphorylated at S431 and T432) (natural protein)
chain: MTSAEMTSPNNNSEHQAIAKMRTMIEGFDDISHGGLPIGRSTLVSGTSGTGKTLFSIQFLYNGIIEFDEPGVFVTFEETPQDIIKNARSFGWDLAKLVDEGKLFILDASPDPEGQEVVGGFDLSALIERINYAIQKYRARRVSIDSVTSVFQQYDASSVVRRELFRLVARLKQIGATTVMTTERIEEYGPIARYGVEEFVSDNVVILRNVLEGERRRRTLEILKLRGTSHMKGEYPFTITDHGINIFPLGAMRLTQRSSNVRVSSGVVRLDEMCGGGFFKDSIILATGATGTGKTLLVSRFVENACANKERAILFAYEESRAQLLRNAYSWGMDFEEMERQNLLKIVCAYPESAGLEDHLQIIKSEINDFKPARIAIDSLSALARGVSNNAFRQFVIGVTGYAKQEEITGLFTNTSDQFMGAHSITDSHISTITDTIILLQYVEIRGEMSRAINVFKMRGSWHDKAIREFMISDKGPDIKDSFRNFERIISGSPTRITVDEKSELSRIVRGVQEKGPES
modifications: phosphorylated S431 (pS431), phosphorylated T432 (pT432)
B3: KaiC-pST (KaiC phosphorylated at S431 only) (natural protein)
chain: B2 chain
modifications: phosphorylated S431 (pS431)
B4: KaiC T432V mutant (KaiC-SV) (natural protein)
chain: B2 chain with T432V
B5: KaiA (natural protein)
chain: MLSQIAICIWVESTAILQDCQRALSADRYQLQVCESGEMLLEYAQTHRDQIDCLILVAANPSFRAVVQQLCFEGVVVPAIVVGDRDSEDPDEPAKEQLYHSAELHLGIHQLEQLPYQVDAALAEFLRLAPVETMADHIMLMGANHDPELSSQQRDLAQRLQERLGYLGVYYKRDPDRFLRNLPAYESQKLHQAMQTSYREIVLSYFSPNSNLNQSIDNFVNMAFFADVPVTKVVEIHMELMDEFAKKLRVEGRSEDILLDYRLTLIDVIAHLCEMYRRSIPRET

Data set [1] has as its target B4. In words: SEC-MALS. (SEC sorts molecules by how far they enter the pores of the column.)
Data set [2] deals with the molecule itself. In words: crystal structure.

The record followed here is article PMC9012456 (Science Advances, 2022).

Positions count from the first letter of the chain named. Names may count otherwise.

In the case of B1, the binding result in data set [1] is “binds”. A word on the stoichiometry N: it is the number of molecules, sites or subunits per partner or assembly. In the case of B2, the “stoichiometry N” value in data set [2] was 6.

On to B3, for which, in data set [2], the “stoichiometry N” value came out at 6. Turning to B4, the binding result in data set [2] is reported as “binds”. For B5, in data set [1], the binding result is reported as “binds”.
